# Measurements: article doi:10.1101/2020.12.31.425019 (bioRxiv, 2020)
# B1: fPanx1ΔC (frog Pannexin 1 truncated at Lys357, residues 1-357) (domain or fragment, UniProt B3DLA5 1-357, looked up)
# chain: MAIAHIATEYVFSDFLLKDPPESKYKGLRLELAVDKLVSCIAVGLPLLLISLAFAQEITLGSQISCFAPTSFSWRQAAYVDSFCWAAVQQKHLSQSDSGNVPLWLHKFFPYILLLVAVLLYLPNLFWRFTAAPHLSSDLKFVMEELDKCYNRDIKDIKAANNLNSSDKRDGLNSPVVSENLQQSLWEIPLSHYKYPIVEQYLKTKNNSYGLIIKYLICRVVTLIIVFTACIYLGYYISLFSLTDEFTCNIRTGILRNDTALPPLVQCKLIAVGVFRLLSYINLIIYVLIMPFIIYAMLVPFRKTANVLKVYEVLPTFSVQQAPSKTYDDHSLFLLFLEENVSELKSYKFLKVLENIK
# modifications: glycosylated in insect cells (upper band sensitive to PNGaseF; site not stated)
# Assays:
# negative-stain EM = biological target: the molecule itself; test: negative-stain EM
# cross-linking = biological target: the molecule itself; test: cross-linking
protein,measurement,setting,value
B1,stoichiometry N,negative-stain EM,7
same,stoichiometry N,cross-linking,~7
